# Measured values: patent US20220096654A1, “PYRROLOBENZODIAZEPINE-ANTIBODY CONJUGATES AND USES THEREOF” (ADC THERAPEUTICS SA, priority 2020, published 2022)
# Tests used:
# 293T (CD45-) = assay: Cell viability assay 72 h (PrestoBlue), 293T; format: cell-based, human; conditions: drug-linker B1
# Experimental: OCIM1, Jurkat and Nalm6 cells were seeded at 0.5×10^5/mL were cultured for 72 hours in presence of Mab or ADC or medium (in triplicate wells) in wells of flat bottom 96-well plates. 293T cells were seeded at 9.3×10^3 cells per well in flat bottom 96-well plates and allowed to adhere the plate for up to 24 hours. 293T cells were subsequently cultured with Mab or ADC or medium (in triplicate wells) for 72 hours. PrestoBlue® Cell viability Reagent (Thermo Fisher Scientific) was added to each and incubated for up to 1.5 hours. Fluorescence intensity from each well was detected using a FLUOstar OPTIMA microplate reader (BMG Labtech). Data points are mean±s.d. for representative experiments.
# CD34+ PBSC (CD45+) = assay: Clonogenic assay, CD34+ PBSC treated 2 h with Mab or ADC; format: cell-based, human
# Experimental: Cryopreserved purified CD34+ cells from mobilized peripheral blood from three normal donors were thawed and cultured at […] complete medium (RPMI 1640 plus 10% fetal calf serum) in presence of Mab, ADC or medium alone for 2 hours in 96-well U-bottom plates. Cells were mixed and 40 uL was transferred to 2 ml of StemMACS HSC-CFU complete with Epo (Miltenyi Biotech) and mixed well. 0.5 ml (250 cells) was plated into triplicate into wells of a 24-well plate. Colonies were enumerated between 10-14 days. Data is mean of three donors±s.d.
# [1] = Dosimetry in non-humanised NSG mice; format: in vivo; conditions: for Comment (survival / culling): non-humanised NSG mice, monitored 2 weeks; for mice culled due to weight loss: human (hIgG1-AAA) format, ≥3 mg/kg, humanised and non-humanised mice
# Experimental: For dosimetry in non-humanised NSG mice, adult NSG mice were injected intravenously via the tail vein with unconjugated Mab or ADC up to 5 mg/kg. Mice regularly monitored over a period of 2 weeks for any signs of morbidity. Mice were culled if rapid weight loss (>15%) occurred over a period of 2 days.
# [2] = Dosimetry in humanised NSG mice; format: in vivo; conditions: 3 mg/kg, culled for weight loss >15%
# Experimental: For dosimetry in humanised NSG mice, adult female NSG mice were sublethally irradiated with 2.5 Gy on the day before transplantation. Cryopreserved purified CD34+ cells from mobilized peripheral blood from a normal donor were thawed and 0.5×10^6 cells in PBS were injected intravenously into the tail vein. Human engraftment (human CD45+ cells) in the blood of all mice was determined by flow cytometry at 12 weeks post-transplant. Mice were assigned to treatment cohorts so that the median human engraftment in the blood for between cohorts was as similar as possible. Mice were treated with 0.3 mg/kg or 3 mg/kg Mab or ADC. Blood samples were taken after 7 days and analysed by flow cytometry. The bone marrow, blood and spleen of mice were analysed at 14 days post-treatment.
# human CD45+ OCIM1 cells = assay: Complement dependent cytotoxicity (51Cr release) assay; format: cell-based; conditions: 10 ug/ml antibody, 10% baby rabbit serum
# Experimental: 1×10^6 human CD45+ OCIM1 cells in 100 uL of complete medium (RPMI 1640 plus 10% fetal calf serum) were radiolabelled with 100 μCi ^51Cr sodium chromate for 1 h at 37° C. followed by three washes with complete medium. Labelled cells were incubated at 5×10^4/mL in triplicate wells of a 96 well plate in presence of YTH24.5 alone, YTH54.12 alone or with both antibodies for 10 mins at room temperature before of addition of baby rabbit serum at a final concentration of 10%. A final concentration of 5% Triton X-100 was added to control wells of cells to determined maximum lysis. 50 uL of supernatant from each well was transferred into a white-walled plates containing 150 uL scintillation liquid in each well. Plates were read in a MicroBeta counter (Trilux) after overnight incubation. The percentage of specific lysis was calculated using the standard formula [(experimental−spontaneous release)/(maximum load-spontaneous release)×100] and expressed as the mean of triplicate samples.
# human CD34+ cells = assay: Ex vivo treatment of CD34+ cells with Mab or ADC prior to engraftment in NSG mice; conditions: CD34+ cells treated at 1 nM and 0.1 nM for 4 hours before transplantation; week 8
# Experimental: Adult female NSG mice were sublethally irradiated with 2.5 Gy on the day before transplantation. Cryopreserved purified CD34+ cells from mobilized peripheral blood from a normal donor were thawed and cultured in complete medium (RPMI 1640 plus 10% fetal calf serum) in presence of Mab, ADC or medium alone for 4 hours. Cells were washed in phosphate buffered saline (PBS) and 0.5×10^6 cells in PBS were injected intravenously into the tail vein of mice. Engraftment of transplanted human cells (hCD45+) in the bone marrow of mice was determined by flow cytometry at 8 weeks after transplantation.
# human CD45+ cells = assay: Depletion of human CD45+ cells in humanised NSG mice; format: in vivo; conditions: for course of the levels of human CD45+ cells in blood: 1 mg/kg, two week period
# Experimental: Adult female NSG mice were sublethally irradiated with 2.5 Gy on the day before transplantation (day −57). Cryopreserved purified CD34+ cells from mobilized peripheral blood from a normal donor were thawed and 0.5×10^6 cells in PBS were injected intravenously into the tail vein of mice (day −56). Human engraftment (human CD45+ cells) in the blood of mice was assessed at day −14 and day −1. Mice were assigned to treatment cohorts so that the median human CD45+ engraftment in the blood between the cohorts was as similar as possible. Mice were injected with 0.3 mg/kg or 1 mg/kg Mab or ADC intravenously via the tail vein. Blood samples were taken after 7 days and analysed by flow cytometry. The bone marrow, blood and spleen of mice were analysed at two weeks post-treatment.
# [3] = tested on: luciferase expressing human CD45+ Jurkat cells; assay: Jurkat leukaemia model in NSG mice (bioluminescence, survival); format: in vivo; conditions: 1 mg/kg, day 16
# Experimental: Adult NSG mice were sublethally irradiated with 2 Gy on the day before injection of cells. 5×10^6 fire fly luciferase expressing Jurkat cells in PBS were injected intravenously into the tail vein of mice. On the following day PBS, MAbs or ADC were injected intravenously into the tail vein at a dose of 1 mg/kg. Mice were regularly monitored for signs of morbidity and weight loss for the duration of the experiment. For imaging, mice were injected intraperitoneally with 3 mg D-luciferin in PBS. Mice were initially anesthetized with 4% isoflurane and then maintained at 2% isoflurane. Ten minutes after injection of D-luciferin, mice were imaged inside a IVIS Lumina III (PerkinElmer). A sub-saturating image was captured using the auto-exposure setting in the Living Image software.
# target cells = assay: Live-imaging microscopy of antibody internalisation; format: cell-based; conditions: live-imaging microscopy (data not shown)
# Text: In particular, the lysosomal pathway can be important in providing an environment for cleavage of the antibody-drug linkers, hereby releasing the drug in the target cells for highly specific cell killing.
# [4] = PBD ADCs in human IgG1-AAA format
# [5] = MAbs in human IgG1-AAA or rat IgG2b format, Isotype control and Isotype control PBD rat IgG2b format only
Molecule,EC50 (293T (CD45-)) [nM],inhibition of colony formation (CD34+ PBSC (CD45+); [4]),Comment (survival / culling) ([1]; 0.5 mg/kg i.v.),Comment (survival / culling) ([1]; 5 mg/kg i.v.),mice culled due to weight loss [1],Comment (survival / culling) [2],lytic activity on OCIM1 cells (human CD45+ OCIM1 cells),inhibition of colony formation (CD34+ PBSC (CD45+); [5]),engraftment of human CD45+ cells in the bone marrow of NSG mice (human CD34+ cells),"Mean % hCD45 levels in blood, 1 week post-treatment (human CD45+ cells; 0.3 mg/kg i.v.) [%]","Mean % hCD45 levels in blood, 2 weeks Post-treatment (human CD45+ cells; 0.3 mg/kg i.v.) [%]","Mean % hCD45 levels in blood, 1 week post-treatment (human CD45+ cells; 1 mg/kg i.v.) [%]","Mean % hCD45 levels in blood, 2 weeks Post-treatment (human CD45+ cells; 1 mg/kg i.v.) [%]",course of the levels of human CD45+ cells in blood (human CD45+ cells),"Mean % hCD45 levels in blood, Pre-treatment (human CD45+ cells; group later dosed 0.3 mg/kg) [%]","Mean % hCD45 levels in blood, Pre-treatment (human CD45+ cells; group later dosed 1 mg/kg) [%]",bioluminescent signal of naked antibody group relative to the corresponding ADC group [3] [fold],internalisation (target cells)
YTH24.5-hIgG1-AAA-PBD: YTH24.5 in human IgG1-AAA format conjugated to PBD drug-linker B1 (conjugate) VH: QVNLLQSGAALVKPGASVKLSCKASSYTFTDYYIHWVKQSHGKTLEWIGYINPKSGFTNYNEKFRRKATLTVDKSTNTAYMDISRLTSEDSATYYCTRRTGVIPMDAWGQGASVTVSS VL: DVVMTQTPVSLSVSLGGQVSISCRSSQSFVSSDGNTYLNWYLQKPGQSPQLLIYKVSNRLSGVPDRFSGSGSGTDFTLKISRVEHDDLGVYYCGQASKIPLTFGSGTKLEIK,134,dose-dependent inhibition of colony formation,All alive at day 14,2 culled at day 6 -,4 of the 6,"1 culled day 6, 1",–,–,–,–,–,–,–,–,–,–,–,–
YTH24.5 (antibody) heavy: QVNLLQSGAALVKPGASVKLSCKASSYTFTDYYIHWVKQSHGKTLEWIGYINPKSGFTNYNEKFRRKATLTVDKSTNTAYMDISRLTSEDSATYYCTRRTGVIPMDAWGQGASVTVSSAQTTAPSVYPLAPGCGDTTSSTVTLGCLVKGYFPEPVTVTWNSGALSSDVHTFPAVLQSGLYTLTSSVTSSTWPSQTVTCNVAHPASSTKVDKKVERRNGGIGHKCPTCPTCHKCPVPELLGGPSVFIFPPKPKDILLISQNAKVTCVVVDVSEEEPDVQFSWFVNNVEVHTAQTQPREEQYNSTFRVVSALPIQHQDWMSGKEFKCKVNNKALPSPIEKTISKPKGLVRKPQVYVMGPPTEQLTEQTVSLTCLTSGFLPNDIGVEWTSNGHIEKNYKNTEPVMDSDGSFFMYSKLNVERSRWDSRAPFVCSVVHEGLHNHHVEKSISRPPGK light: DVVMTQTPVSLSVSLGGQVSISCRSSQSFVSSDGNTYLNWYLQKPGQSPQLLIYKVSNRLSGVPDRFSGSGSGTDFTLKISRVEHDDLGVYYCGQASKIPLTFGSGTKLEIKRADAAPTVSIFPPSMEQLTSGGATVVCFVNNFYPRDISVKWKIDGSEQRDGVLDSVTDQDSKDSTYSMSSTLSLTKVEYERHNLYTCEVVHKTSSSPVVKSFNRNEC,–,–,–,All alive at day 14,–,–,showed lytic activity,do not inhibit colony formation,prevented engraftment,3.53,4.72,0.82,3.92,transient reduction,5.55,5.47,100,substantially internalised via a lysosomal pathway
YTH54.12 (antibody) heavy: EVQLVESGGGLVQPGGSMKLSCAASGFTFSDYYMAWVRQAPKKGLEWVASMSFAGSSTYYGDSVKGRFTISRDNAKTTLYLQMNSLRSEDTATYYCARMYTTDYYLYWYFDFWGPGTMVTVSSAQTTAPSVYPLAPGCGDTTSSTVTLGCLVKGYFPEPVTVTWNSGALSSDVHTFPAVLQSGLYTLTSSVTSSTWPSQTVTCNVAHPASSTKVDKKVERRNGGIGHKCPTCPTCHKCPVPELLGGPSVFIFPPKPKDILLISQNAKVTCVVVDVSEEEPDVQFSWFVNNVEVHTAQTQPREEQYNSTFRVVSALPIQHQDWMSGKEFKCKVNNKALPSPIEKTISKPKGLVRKPQVYVMGPPTEQLTEQTVSLTCLTSGFLPNDIGVEWTSNGHIEKNYKNTEPVMDSDGSFFMYSKLNVERSRWDSRAPFVCSVVHEGLHNHHVEKSISRPPGK light: DVQMTQSPSYLAASPGESVSISCKASKSISNYLAWYQQKPGEANKILIYSGSTLQSGTPSRFSGSGSGTDFSLTIRNLEPEDFAVYYCQQYDEKPLTFGSGTKLEIKRADAAPTVSIFPPSMEQLTSGGATVVCFVNNFYPRDISVKWKIDGSEQRDGVLDSVTDQDSKDSTYSMSSTLSLTKVEYERHNLYTCEVVHKTSSSPVVKSFNRNEC,–,–,–,All alive at day 14,–,–,no lytic activity,do not inhibit colony formation,prevented engraftment,3.19,3.81,1.02,1.84,transient reduction,5.52,5.98,10,substantially internalised via a lysosomal pathway
YTH54.12-hIgG1-AAA-PBD: YTH54.12 in human IgG1-AAA format conjugated to PBD drug-linker B1 (conjugate) VH: EVQLVESGGGLVQPGGSMKLSCAASGFTFSDYYMAWVRQAPKKGLEWVASMSFAGSSTYYGDSVKGRFTISRDNAKTTLYLQMNSLRSEDTATYYCARMYTTDYYLYWYFDFWGPGTMVTVSS VL: DVQMTQSPSYLAASPGESVSISCKASKSISNYLAWYQQKPGEANKILIYSGSTLQSGTPSRFSGSGSGTDFSLTIRNLEPEDFAVYYCQQYDEKPLTFGSGTKLEIK,16.5,dose-dependent inhibition of colony formation,All alive at day 14,All alive at day 14,1 of the 6,1 culled on day 9,–,–,–,–,–,–,–,–,–,–,–,–
